Results published in patent publication US20230175000, “MAIZE GENE ZMRAVL1 AND FUNCTIONAL SITE AND USE THEREOF” (CHINA AGRICULTURAL UNIVERSITY, published 2023).

Target: T1, DRL1 (Drooping leaf1, YABBY C2C2) (Zea mays, UniProt A0A804LG43 A0A804LG43:1-207)
T1 sequence: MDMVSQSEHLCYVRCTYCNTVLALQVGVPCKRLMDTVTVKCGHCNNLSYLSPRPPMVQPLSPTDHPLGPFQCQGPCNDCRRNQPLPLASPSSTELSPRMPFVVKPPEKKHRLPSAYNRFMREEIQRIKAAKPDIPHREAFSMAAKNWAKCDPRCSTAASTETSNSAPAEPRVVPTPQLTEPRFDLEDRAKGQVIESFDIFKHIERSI
Assay: EMSA; room temperature 20 min; band slightly brighter than W22 probe; competed by unlabeled probe
Settings: tags: His fusion (PET32a, E. coli Rosetta, nickel beads); label: biotin
Procedure: EMSA (electrophoretic mobility shift assay) was carried out to validate the above speculation. First of all, biotin-labeled EMSA probes (UPA2-NIL^W22 biotin probes: UPA2-NIL^W22-F, UPA2-NIL^W22-R; UPA2-NIL^W22 competitive probe: UPA2-NIL^W22-com-F, UPA2-NIL^W22-com-R; UPA2-NIL⁸⁷⁵⁹ biotin probes: UPA2-NIL⁸⁷⁵⁹-F, UPA2-NIL⁸⁷⁵⁹-R; UPA2-NIL⁸⁷⁵⁹ competitive probe: UPA2-NIL⁸⁷⁵⁹-com-F, UPA2-NIL⁸⁷⁵⁹-com-R) were designed for the sequences of UPA2-NIL^W22 and UPA2-NIL⁸⁷⁵⁹ respectively. The probe included a C2C2-binding motif and upstream and downstream flanking sequences (each 22 bp). In the meantime, the corresponding sequences that were not labeled with biotin were synthesized as competitive probes. Next, the DRL1 CDS region was recombined onto a PET32a prokaryotic expression vector by a homologous recombination method to construct an expression vector of DRL1-His fusion proteins and it was introduced into the expression strain Rosetta to induce the expression of the DRL1-His fusion proteins. Finally, the DRL1-His fusion proteins were obtained through purification using Nickel beads. […]

B1: UPA2-NIL8759 probe (dsDNA)
DNA 1: AACTGCGCATGCGCGCGCTGAGTGTGGTCCTTCTCTTTTAATTACTACTG
DNA 2: CAGTAGTAATTAAAAGAGAAGGACCACACTCAGCGCGCGCATGCGCAGTT
binding result: binds
